Ends that are not written are not given here.
Assays:
[1] = target: T1, CHO-SST-2 (mb) (Homo sapiens, UniProt P30874); assay: Binding to somatostatin receptor, CHO-SST-2 membranes
T1 construct: expressed in transfected cells; host or cells: CHO cell membranes (mb)
Procedure: After subtraction of the non-specific binding and normalization, data obtained with [^125I][Tyr^1]-somatostatin were analyzed using the Hill equation to estimate the IC50 values.

[2] = Cysteine challenge of TcO complexes; format: physicochemical; conditions: pH 7.4, 20 h, 310 K
Procedure: A solution containing 16 μg of lyophilized TcO[UBI 29-41] (SEQ ID NO: 1) was added to 32 μl of Cysteine solution in PBS pH 7.4. Three concentrations of Cysteine solution were used: 100 mM, 15 mM and 1 mM corresponding respectively to a molar ratio Cysteine:Tc-UBI-WT of 333, 53 and 3. The samples were incubated for 20 h at 310 K prior to HPLC and ESI-MS analysis. Similar experiment was performed for TcO[TGRRR] (SEQ ID: NO 22) complex. 13 μg of lyophilized TGRRR(SEQ ID: NO 22)-TcO complex were added to 64 μl of 15 mM Cysteine solution in PBS pH 7.4 corresponding to a TcO[TGRRR] (SEQ ID: NO 22):Cysteine molar ratio of 50. This solution was incubated for 20 h at room temperature prior to HPLC analysis.
To be useful for the in vivo application of the TGRRR sequence (SEQ ID NO: 26) to label peptides or proteins, the TcO[TGRRR] (SEQ ID NO: 27) complex must be stable during 1-3 times the period of ^99mTc. The inventors evaluated the stability of the [TcO]^3+ complexes in the case of the peptide UBI-WT (SEQ ID: NO 1) and TGRRR, (peptide P13; SEQ ID NO: 26). To this end, the inventors performed a Cysteine challenge. 16 μg of the TcO[UBI-WT] was added to 1, 15, and 100 mM solutions of Cysteine at pH 7.4 corresponding respectively to molar ratio of 3, 53 and 333. These samples were incubated for 20 h at 310 K. The mixtures were analyzed by HPLC and LC-MS.

[3] = tested on: AR4-2J xenografted tumour; assay: Whole body section imaging with β-imager; format: in vivo, mice
Procedure: Full Body section analysis: the mice were injected by caudal vein and sacrificed 4 hours later. For imaging, the mice were anesthesied and then immersed in an −80° C. mixture of dry ice and isopentane to prevent CNT tissue redistribution. After blocking the body in mounting medium, tissue sections (20 μm) were made at −20° C. with a slicing microtome (LEICA Microsystems, France). Sections were kept at room temperature for 2 hours in the presence of silica gel to ensure complete drying.
The quantitative determination of the radioactivity in dried tissue sections and imaging were carried out using a β-imager (Biospace Lab, Paris, France).

[4] = tested on: AR4-2J xenografted tumour; conditions: mouse, in vivo
Procedure: Females Balb/c nude mice weighing 20 g were purchased from Charles River Laboratories (L'Arbresle, France). The mice were kept in a conventional animal facility and had access ad libitum to food and drink. The experimental protocol has been approved by the local ethical committee for animal experimentation.
Mice were implanted subcutaneously with 5-6 millions AR4-2J cells freshly suspended in sterile PBS. […] After 1 h, 4 h or 24 h time period, the mice were sacrificed by ex-sanguination under anaesthesia. Organs of interest, blood and urine were collected and weighted. The radioactivity was measured with a gamma counter.
Two control experiments were also conducted.

[5] = 30 equivalents of Cysteine; cited from earlier work

T1 sequence (P30874 whole entry): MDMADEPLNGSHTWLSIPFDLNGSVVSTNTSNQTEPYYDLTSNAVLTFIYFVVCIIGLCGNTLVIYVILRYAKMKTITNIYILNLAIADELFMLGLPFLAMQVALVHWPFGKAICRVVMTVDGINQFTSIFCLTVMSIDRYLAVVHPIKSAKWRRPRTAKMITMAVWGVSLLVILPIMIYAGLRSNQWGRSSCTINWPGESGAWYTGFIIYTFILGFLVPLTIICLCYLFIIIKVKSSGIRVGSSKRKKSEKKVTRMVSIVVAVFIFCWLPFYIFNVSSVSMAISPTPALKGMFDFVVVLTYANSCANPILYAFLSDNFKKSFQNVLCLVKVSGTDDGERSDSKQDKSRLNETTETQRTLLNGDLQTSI

CC(C)[C@@H]1NC(=O)[C@H](CCCCN)NC(=O)[C@@H](Cc2c[nH]c3ccccc23)NC(=O)[C@H](Cc2ccc(O)cc2)NC(=O)[C@@H](NC(=O)[C@@H](Cc2ccccc2)NC(=O)CNC(=O)CNC(=O)[C@H](CCCNC(=N)N)NC(=O)[C@H](CCCNC(=N)N)NC(=O)[C@H](CCCNC(=N)N)NC(=O)CNC(=O)[C@@H](N)[C@@H](C)O)CSSC[C@@H](C(=O)N[C@H](C(N)=O)[C@@H](C)O)NC1=O
Ki [1]: 20 pM

TGRAKRRMQYNRR (Ac-TGRAKRRMQYNRR-NH2) [SEQ ID NO: 1, N-acetylated, C-amidated tridecamer, residue 29 to 41 of the protein Ubiquicidine]
initial [TcO]3+ complex observed ([2]; 1 mM Cysteine): more than 95% | initial [TcO]3+ complex observed ([2]; 15 mM Cysteine): 69% | initial [TcO]3+ complex observed ([2]; 100 mM Cysteine): 10%

TcO[HTGRRRGG-RC-121]: TcO complex of HTGRRRGG-RC-121
radioactivity uptake in the tumour region, β-imaging of whole body section ([3]; group 1, 4 hours post injection): important uptake of the labelled compound in this region | radioactivity uptake in the tumour region, β-imaging of whole body section ([3]; group 2, 125-fold excess of RC-121, 4 hours post injection): absence of radioactivity uptake

TcO[HTGRRR]: [TcO]3+ complex of the TGRRR peptide (P13) (TGRRR-OH; also: TcO complex)
initial [TcO]3+ complex observed ([2]; 15 mM Cysteine): 57% | Tumor/Blood Ratio [4]: 1 | Tumor/Muscle Ratio [4]: 2.6 | radioactivity in Adrenals [4]: 2.2 ± 4.7 % ID/g | radioactivity in Bile [4]: 6.6 ± 2.4 % ID/g | radioactivity in Blood [4]: 0.3 ± 0.3 % ID/g | radioactivity in Brain [4]: 0.1 ± 0.2 % ID/g | radioactivity in Carcass [4]: 0.2 ± 0.1 % ID/g | radioactivity in Heart [4]: 0.7 ± 0.6 % ID/g | radioactivity in Intestines [4]: 1.3 ± 0.8 % ID/g | radioactivity in Kidneys [4]: 21.9 ± 9.5 % ID/g | radioactivity in Liver [4]: 2.1 ± 0.5 % ID/g | radioactivity in Lungs [4]: 0.6 ± 0.8 % ID/g | radioactivity in Muscle [4]: 0.8 ± 1.23 % ID/g | radioactivity in Pancreas [4]: 0.3 ± 0.6 % ID/g | radioactivity in Spleen [4]: 0.7 ± 0.6 % ID/g | radioactivity in Stomach [4]: 2.6 ± 2.2 % ID/g | radioactivity in Tail [4]: 5.3 ± 4.5 % ID/g | radioactivity in Urine [4]: 8.6 ± 5.5 % ID/g

[AGGG]TcO complex: TcO complex of the peptide AGGG (SEQ ID NO: 31), from the literature (also: TcO complex)
stability against Cysteine [5]: completely unstable
